Results: PMC5520056, “Cryo-EM structures of the ATP-bound Vps4^E233Q hexamer and its complex with Vta1 at near-atomic resolution” (Nature Communications, 2017)

B3: Vps4^E233Q (full-length yeast Vps4 containing an E233Q mutation) (enzyme, Saccharomyces cerevisiae, UniProt P52917 1-437, looked up)
chain: MSTGDFLTKGIELVQKAIDLDTATQYEEAYTAYYNGLDYLMLALKYEKNPKSKDLIRAKFTEYLNRAEQLKKHLESEEANAAKKSPSAGSGSNGGNKKISQEEGEDNGGEDNKKLRGALSSAILSEKPNVKWEDVAGLEGAKEALKEAVILPVKFPHLFKGNRKPTSGILLYGPPGTGKSYLAKAVATEANSTFFSVSSSDLVSKWMGESEKLVKQLFAMARENKPSIIFIDQVDALTGTRGEGESEASRRIKTELLVQMNGVGNDSQGVLVLGATNIPWQLDSAIRRRFERRIYIPLPDLAARTTMFEINVGDTPCVLTKEDYRTLGAMTEGYSGSDIAVVVKDALMQPIRKIQSATHFKDVSTEDDETRKLTPCSPGDDGAIEMSWTDIEADELKEPDLTIKDFLKAIKSTRPTVNEDDLLKQEQFTRDFGQEGN
notes: Vps4 (vacuolar protein sorting 4), Saccharomyces cerevisiae, full length, with E233Q; Hexamer with ATP, dimer without ATP; written as the protomer because its self-association is what is measured; also called E233Q mutant; Vps4 E233Q mutant; source: E. coli BL21 (DE3), purified (Ni-NTA, apyrase treatment, SEC)

Assays:
Vps4 (wild-type, yeast) = target: T1, Vps4 (wild-type, yeast) (Saccharomyces cerevisiae, UniProt P52917 1-437, Cy5 maleimide (labelling efficiency 48%) in the single-molecule assay; unlabelled in the ATPase assay); assay: cell-based or functional assay
T1 sequence (looked up): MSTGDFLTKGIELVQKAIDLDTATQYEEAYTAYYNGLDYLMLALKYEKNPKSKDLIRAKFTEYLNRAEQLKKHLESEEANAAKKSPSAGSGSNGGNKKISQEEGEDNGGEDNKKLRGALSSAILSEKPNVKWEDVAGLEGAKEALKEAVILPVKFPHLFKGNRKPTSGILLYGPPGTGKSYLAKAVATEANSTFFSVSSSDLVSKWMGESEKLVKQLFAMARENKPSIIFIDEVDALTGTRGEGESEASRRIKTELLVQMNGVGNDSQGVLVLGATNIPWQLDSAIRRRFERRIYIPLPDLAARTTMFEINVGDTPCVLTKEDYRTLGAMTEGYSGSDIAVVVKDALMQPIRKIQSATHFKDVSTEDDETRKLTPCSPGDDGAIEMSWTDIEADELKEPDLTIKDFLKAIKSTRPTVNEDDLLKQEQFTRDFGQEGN

[1] = target: B3; assay: SEC; Vps4 mutants at 5 uM with Vta1 at molar ratio 1:2, 1 mM ATP, 4 C, 1 h; Superose 6 10/300 GL in assembly buffer; details: both partners purified
[2] = target: the molecule itself; assay: cryo-EM structure; ATP-bound Vps4^E233Q-Vta1 complex (1.5- to 2-fold molar excess of Vta1, 1 mM ATP, Superose 6), no glutaraldehyde; no symmetry imposed; 4.2 A
[3] = target: T2, Vps4^E233QC376S, Cy5-labelled (single-cysteine mutant) (Saccharomyces cerevisiae, UniProt P52917 1-437, E233Q | C376S, Cy5 maleimide on the single cysteine); assay: fluorescence of two dyes in the SEC-separated complex; Cy5-Vps4 and Cy3-Vta1 single-cysteine mutants incubated at molar ratio 1:2 with ATP on ice 1 h, complex separated by SEC in assembly buffer; concentrations from standard curves of fluorescence; details: both partners purified
T2 construct: Vps4, Saccharomyces cerevisiae, with E233Q and C376S (only one cysteine left); source: E. coli BL21 (DE3), purified as for other mutant proteins, labelled with Cy5 maleimide
T2 sequence (looked up): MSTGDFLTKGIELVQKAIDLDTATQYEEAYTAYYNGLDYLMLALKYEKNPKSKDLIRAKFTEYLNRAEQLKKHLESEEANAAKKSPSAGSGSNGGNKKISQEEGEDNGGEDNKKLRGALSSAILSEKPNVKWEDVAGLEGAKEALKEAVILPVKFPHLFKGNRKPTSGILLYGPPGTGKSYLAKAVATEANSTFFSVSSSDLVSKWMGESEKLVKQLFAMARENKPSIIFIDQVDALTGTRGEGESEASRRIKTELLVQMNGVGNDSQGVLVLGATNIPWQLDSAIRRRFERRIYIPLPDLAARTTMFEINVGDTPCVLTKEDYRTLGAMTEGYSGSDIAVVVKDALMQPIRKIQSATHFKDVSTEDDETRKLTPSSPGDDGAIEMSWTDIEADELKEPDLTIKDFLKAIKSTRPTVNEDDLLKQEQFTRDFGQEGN

[4] = target: the molecule itself; assay: SEC; oligomeric state without ATP (Supplementary Fig. 9)
[5] = target: the molecule itself; assay: SEC-MALS; 200 ul of 5 mg/ml (50 uM) Vps4^E233Q preincubated with 1 mM ATP at 4 C for 1 h; Superdex 200 10/300 GL; assembly buffer (20 mM HEPES pH 7.5, 100 mM NaCl, 1 mM DTT, 2 mM MgCl2, 1 mM ATP)
[6] = target: the molecule itself; assay: SEC; oligomeric state with ATP: each mutant at 100 uM incubated with 1 mM ATP at 4 C for 1 h; Superdex 200 10/300 GL in assembly buffer

B1: Vta1 (Vps twenty associated 1) (natural protein, Saccharomyces cerevisiae)
chain: MASNAARVVATAKDFDKVGLGIIGYYLQLYAVELILSEEDRSQEMTALATELLDTIEAFKKEIGGESEAEDSDKSLHVMNTLIHDQEKAKIYMLNFTMSLYNEKLKQLKDGPWDVMLKRSLWCCIDLFSCILHLWKENISETSTNSLQKRIKYCKIYLSKLAKGEIGSSDEKTLDYADFADDSEEIKDEDVDHQTSDLENNNNDKVEGLAPKDQTTSYEPVDEVPEFIDDADSVNEEEQTVDKNEDAITKDEQQVVKKEVDLTRPSAPSEPAAAEHKSYTKDELTKIMDRASKIEQIQKLAKYAISALNYEDLPTAKDELTKALDLLNSI
notes: Vta1, Saccharomyces cerevisiae, gene amplified from yeast genomic DNA; also called Vta1 dimer; source: E. coli BL21 (DE3), purified (Ni-NTA, apyrase treatment, SEC)
ATPase activity (malachite green) of 1 uM wild-type Vps4 in the presence of Vta1 (Vps4 (wild-type, yeast)): 2 fold
binding result [1]: binds
binding result [2]: binds

B2: Vta1^C124S154S, Cy3-labelled (single-cysteine mutant) (natural protein, Saccharomyces cerevisiae)
chain: MASNAARVVATAKDFDKVGLGIIGYYLQLYAVELILSEEDRSQEMTALATELLDTIEAFKKEIGGESEAEDSDKSLHVMNTLIHDQEKAKIYMLNFTMSLYNEKLKQLKDGPWDVMLKRSLWCSIDLFSCILHLWKENISETSTNSLQKRIKYSKIYLSKLAKGEIGSSDEKTLDYADFADDSEEIKDEDVDHQTSDLENNNNDKVEGLAPKDQTTSYEPVDEVPEFIDDADSVNEEEQTVDKNEDAITKDEQQVVKKEVDLTRPSAPSEPAAAEHKSYTKDELTKIMDRASKIEQIQKLAKYAISALNYEDLPTAKDELTKALDLLNSI
modifications: Cy3 maleimide on the single cysteine
notes: Vta1, Saccharomyces cerevisiae, with C124S and C154S (only one cysteine left); source: E. coli BL21 (DE3), purified as for other mutant proteins, labelled with Cy3 maleimide
stoichiometry N [3]: 2.06 Vta1/Vps4^E233Q (molar ratio)

B3
stoichiometry N [4]: 2
stoichiometry N [5]: 6

B4: Vps4 mutant E233QR325A (enzyme, Saccharomyces cerevisiae, UniProt P52917 1-437, looked up)
chain: MSTGDFLTKGIELVQKAIDLDTATQYEEAYTAYYNGLDYLMLALKYEKNPKSKDLIRAKFTEYLNRAEQLKKHLESEEANAAKKSPSAGSGSNGGNKKISQEEGEDNGGEDNKKLRGALSSAILSEKPNVKWEDVAGLEGAKEALKEAVILPVKFPHLFKGNRKPTSGILLYGPPGTGKSYLAKAVATEANSTFFSVSSSDLVSKWMGESEKLVKQLFAMARENKPSIIFIDQVDALTGTRGEGESEASRRIKTELLVQMNGVGNDSQGVLVLGATNIPWQLDSAIRRRFERRIYIPLPDLAARTTMFEINVGDTPCVLTKEDYATLGAMTEGYSGSDIAVVVKDALMQPIRKIQSATHFKDVSTEDDETRKLTPCSPGDDGAIEMSWTDIEADELKEPDLTIKDFLKAIKSTRPTVNEDDLLKQEQFTRDFGQEGN
notes: Vps4, Saccharomyces cerevisiae, with E233Q and R325A; also called E233QR325A mutant; source: E. coli BL21 (DE3), purified (Ni-NTA, apyrase treatment, SEC)
stoichiometry N [4]: 2
stoichiometry N [6]: 6
